Assay results from paper PMC4041440, “Structural and biophysical characterization of Staphylococcus aureus SaMazF shows conservation of functional dynamics” (Nucleic Acids Research, 2014).

Target: the molecule itself
Assay: SEC; analytical gel filtration, Superdex HR75 10/30, 20 mM Tris-HCl pH 8.0, 250 mM NaCl, SaMazF at 3.3 mg/ml; apparent molecular weight about 31 500 Da

B1: Staphylococcus aureus MazF toxin (SaMazF), N-terminally His-tagged (enzyme)
chain: IRRGDVYLADLSPVQGSEQGGVRPVVIIQNDTGNKYSPTVIVAAITGRINKAKIPTHVEIEKKKYKLDKDSVILLEQIRTLDKKRLKEKLTYLSDDKMKEVDNALMISLGLNAVAHQKN
notes: SaMazF, the MazF toxin (ribonuclease) of the Staphylococcus aureus mazEF module; wild type; 13C15N-labelled for the NMR experiments; The models number the tag's last residues Gln-1, Asp0, Pro1, so the tag's Pro may stand at position 1 of SaMazF in place of Met1; The measured mass is 14 794 Da, for the chain with the tag and without the N-terminal methionine; also called SaMazF2 (the dimer); …
- stoichiometry N: 2
